Laboratory results: patent publication US20180305438A1 (ACCELERON PHARMA, published 2018)

How the values were obtained:
Assay in all cases: Biacore (SPR)
hBMP2 = hBMP2 (human, UniProt P12643 283-396)
hBMP7 = biological target: T1, hBMP7 (human, UniProt P18075 293-431)
T1 sequence (looked up): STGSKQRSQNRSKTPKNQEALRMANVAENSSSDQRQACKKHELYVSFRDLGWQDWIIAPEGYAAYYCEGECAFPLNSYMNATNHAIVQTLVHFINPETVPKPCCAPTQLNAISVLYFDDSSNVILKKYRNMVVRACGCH

hBMP4 = biological target: T2, hBMP4 (human, UniProt P12644 293-408)
T2 sequence (looked up): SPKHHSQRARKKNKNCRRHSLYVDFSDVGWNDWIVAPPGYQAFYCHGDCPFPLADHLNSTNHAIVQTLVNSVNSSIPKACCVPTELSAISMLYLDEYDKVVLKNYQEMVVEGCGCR

Sequence of hBMP2 (P12643 283-396 limits assumed): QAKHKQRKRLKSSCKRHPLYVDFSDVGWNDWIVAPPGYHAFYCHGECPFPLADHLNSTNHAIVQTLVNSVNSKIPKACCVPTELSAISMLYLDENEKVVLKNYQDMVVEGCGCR

Kd (hBMP2): 2.43 nM
binding result (hBMP7): binds
Kd (hBMP4): 0.947 nM
B1: mALK3(24-152)-mFc derived from HEK 293 cells (Fc fusion)
chain: GAQNLDSMLHGTGMKSDLDQKKPENGVTLAPEDTLPFLKCYCSGHCPDDAINNTCITNGHCFAIIEEDDQGETTLTSGCMKYEGSDFQCKDSPKAQLRRTIECCRTNLCNQYLQPTLPPVVIGPFFDGSIRTGGGEPRVPITQNPCPPLKECPPCAAPDLLGGPSVFIFPPKIKDVLMISLSPMVTCVVVDVSEDDPDVQISWFVNNVEVHTAQTQTHREDYNSTLRVVSALPIQHQDWMSGKEFKCKVNNRALPSPIEKTISKPRGPVRAPQVYVLPPPAEEMTKKEFSLTCMITGFLPAEIAVDWTSNGRTEQNYKNTATVLDSDGSYFMYSKLRVQKSTWERGSLFACSVVHEGLHNHLTTKTISRSLGK
notes: The Gly-Ala at 23-24 may also be absent, since the main species of the human construct starts at Gln; also called mALK3-mFc
